Reference: US20150086555A1

B1: TCN-550 (5096_F06) (antibody, V domains shown)
VH: QVQLQESGPGLVKPSETLSLTCTVSGASINSHYWSWIRQPPGKGLEWIGYVYYSGSTTYNPSLKSRVTLSVDTSKNQFSLNLSSVTAADTAFYYCARHPYDVLTGSGDWFDPWGQGTLVTVSS
VL: SYVLTQAPSVSVAPGQTARITCGGNAIGSKKVHWYQHKAGQAPVLVVYDDTDRPSGIPERFSGSNSWSTATLTINRVEAGDEADYYCQVWDFTIDHVVFGGGTKLTVL
B2: TCN-557 (5081_A04) (antibody, V domains shown)
VH: QVQLVQSGAEVKKPGASVKVSCKASGHTFTGYYIHWVRQAPGQGLEWMGWINPDSGATSSAQNFQGRVTMTGDTSSSTAYMELSRLSFDDTAVYYCARVLFTSPFDFWGEGTLVTVSS
VL: QAVVTQEPSLAVSPGGTVTLTCGSSTGAVTRGHYPYWFQQKPGQAPRALIYDSAGNRHSWTPARFSGSLLGGKAALTLSGAQPEDEAEYYCLLSYSGVWVFGGGTKLTVL
B3: TCN-552 (5249_I23) (antibody, V domains shown)
VH: QVQVVQSGAEVKKPGSSVRVSCQASGGTFMNYAIIWVRRAPGQGLEWMGGIIPVFPTPNYAQMFQGRVTISTDESRSTSFLELTNLRYEDTAVYYCARRIYHGGNSGFDFWGQGTLVTVSS
VL: EIVLTQSPATLSLSPGERATLSCRASQSVGNYLAWYQQKPGQAPRLLIYDSSNRAPGIPARFSGSGSGTDFTLTISSLAPEDFAVYYCQQRSKWPPMYSFGHGTKLEIK
B4: TCN-555 (5246_L16) (antibody, V domains shown)
VH: QVQLVQSGAEVKRPGSSVKVSCTASGGIFRKNAISWVRQAPGQGLEWMGGIIAVFNTANYAQKFQNRVKITADESGNTAYMELSSLTSDDTAVYYCASHPKYFYGSGSYPDFWGQGTLVTVSS
VL: QSALTQPRSVSGSPGQSITISCTGGSSDIGASNSVSWYQQHPGKAPKLVIFDVTERPSGVPHRFSGSKSGNTASLTVSGLQPDDEADYFCCAYGGKYLVVFGGGTKVTVL
B5: TCN-553 (5261_C18) (antibody, V domains shown)
VH: QVQVVQSGTEVKKPGSSVKVSCQTSGGRFMSYAITWVRQAPGQGLEWMGGIVPVFGTANYAQKFQGRVTITTDDSTRTAYMELSSLRSEDTAVYYCGFRYGSGYGFDSWGQGTLVTVSS
VL: EIVLTQSPGTLSLSPGERATLSCRASQSVSSSYLAWYQKKPGQAPRLLIYGASTRATGIPDRFTGSGSGTDFTLSISRLEPEDFAVYYCQHFGTSVFTFGGGTKVEIK
B6: TCN-537 (3194_D21) (antibody, V domains shown)
VH: QVQLQQWGSGLLKPSETLSLTCAVYGGSFRDDYWTWIRQPPGKGLEWIGEINHSGRTNYNPSLKSRVTISVDTSLKQFSLKVISVTAADTAVYYCARGTSHVSRYFDWLPPTNWFDPWGQGTQVTVSS
VL: DIVLTQSPGTLSLSPGERATLSCRASQSVSSSYLAWYQQKPGQAPRLVMYGAATRATGIPDRFSGSGSGPDFTLTISRLEPEDFAMYYCQQYGNSPITFGQGTRLEIK
B7: TCN-545 (5082_I15) (antibody, V domains shown)
VH: QVQLQQWGAGLLKPSETLSLSCAVFGGSFSDYYWTWIRQPPGKGLEWIGEIKHSGRTNYNPSLESRVTISVDTSKNQFSLKLSSVTAADTAIYYCARGTDPDTEGYCRSGSCSAFDFWGQGTLVTVSS
VL: EIVLTQSPGTLSLSPGERATLSCRASHFVNYRSLAWYQQTPGQVPRLLIYGASTRATGIPDRFSGSGSGTDFTLTISRLEPEDFAVYFCQQYGGSPRYTFGQGTRLEIK
B8: TCN-543 (5081_G23) (antibody, V domains shown)
VH: QVHLVQSGAEVRKPGDSVKVSCKTSGYTFSTYPVAWVRQVPGQGLEWMGWISTYNGNTNFAQNFQGRVTLTTDTTTNTAYMEVRSLKFDDTAVYYCARVEGSYRDFWNNQNRFDPWGQGTLVTVSS
VL: SYVLTQPPSVSVAPGQTARISCGGSNIGGKSVHWYQQKPGQAPVLVVYDDSGRPSGIPERFSGSNSGDTATLTISRVEAGDEADYFCQVWDNFGGVFGTGTKVTVL
B9: TCN-538 (3206_O17) (antibody, V domains shown)
VH: QITLKESGPTLVKPTQTLTLTCVFSGFSLSITGVRVGWIRQPPGKALEWLALISWDDEKHYSPSLQSRLTITKDTSKNQVVLTMTNLDPVDTATYYCARSTDRGHVLRYFGWMLPGDAFDVWGQGTMVTVSS
VL: DIVMTQSPDFLPVSLGERATINCKSSQRVLYSSNNKNYLAWYQLKPGQPPKLIIYWASTRESGVPDRFSGSGSGTEFTLTISSLQAEDVAVYYCQQYYSRPYTFGQGTKLEIK
B10: TCN-546 (5089_L08) (antibody, V domains shown)
VH: QVQLQQWGAGLLKPSETLSLTCGVYGGSLSDYYWSWIRQPPGKGLEWIGEINHSGGTNYNPSLKRRVTISVDTSKKQFSLKMNSVTAADTAVYYCARGTDPDTEVYCRAGNCAAFDFWGQGTLVTVSS
VL: EIVLTQSPGTLSLSPGERATLSCRASHFVIGRAVAWYQQKPGQAPRLLIYGASSRATGIPDRFSGSGSGTDFTLTISRLETEDFAVFYCQHYGSSPRYAFGQGTKLEIK
B11: TCN-528 (5087_P17) (antibody, V domains shown)
VH: QVQLVQSGSEVKKPGASVKVSCKASGYTFTNYDINWIRQAPGQGLEWMGWINPNSGTTGSAQRFQGRVTITVDTSITTVYMELSSLRSDDTAIYYCARGRELLRLQHFLTDSQSERRDCFDPWGQGTLVTVSS
VL: DIQMTQSPSSLSASVGDRVTITCRANQDIGIYLNWYQQNPGKVPKLLLHGASSLQGGVPSRFSASGSGTDFTLTIHSLQPEDLATYYCQQSRRLPYTFGQGTRVELK
B12: TCN-522 (3212_I12) (antibody, V domains shown)
VH: QVQLQQWGAGLLKPSETLSLTCTVSGGSLTDYSWNWIRQPPGKGLEWIGDTLHNGYTNYNPSLRGRVSISIDTSKNQVSLRLTSVTAADTALYYCARGSGGYGGFDYFGKLRTWDFWGQGTLVTVSS
VL: DIQLTQSPSSLSASVGDRVTITCRASQGIRNDLGWYQQKPGNAPKRLIFGASSLQSGVPSRFSGSGSGTEFTLTISSLQPEDFATYYCLQHNSYPYTFGQGTKLEIK
B13: TCN-527 (5086_C06) (antibody, V domains shown)
VH: QVQLQESGPGLVKPSETLSLNCAVSGGSISNYYWSWIRQPPGKGLEWIGYISYNGRPKYNPSLTSRVTISVDTSKDQFSLELRSVTAADTALYYCARETRFGELLSPYDAFEIWGQGTMVTVSS
VL: DIQMTQSPSSLSASVGDRVTMTCRASQNIRSYLNWYQQRPGTAPKLLIYAASTLHSGVPSRFSGGGSGTDFTLTINNLQPEDFASYYCQQSYDNPQTFGQGTKVEIK
B14: TCN-551 (5243_D01) (antibody, V domains shown)
VH: EVQLVQSGSEVKKPGESLKISCKGSGYSFSNYWIGWVRHMPGKGLEWMGIIYPGDSDTRYSPSFQGQVTMSADKSSSTVYLQWSSLKASDTAIYYCARRGGHSFGYGSGGDTHSEFDSWGQGTLVTVSS
VL: QSVLTQSPSVSAAPGQKVTISCSGSDSNIGDYFVCWYQHLPGKPPQLLIYENNKRPSGIPDRFSGSKSGTSATLGITGIQTGDEADYYCATWDGSLSAWVFGGGTKLTVL
B15: TCN-539 (5056_A08) (antibody, V domains shown)
VH: QVQLVESGGGVVQPGRSLRLSCAASEITFITYAMHWVRQAPGKGLEWVALISDDGSNKFYADSVKGRFTISRDNSKNTLYLQMNSLRAEDTAAYYCAREGVYFDSGTYRGYFDYWGQETLVTVSS
VL: EIVLTQSPATLSLSPGERATLSCRASQSVSSYLAWYQQKPGQAPRLLIYDASNRATGIPARFSGSGSGTDFTLTISSLEPEDFAVYYCQQRSHWPPITFGQGTRLEIK
B16: TCN-521 (3280_D18) (antibody, V domains shown)
VH: EVQLVQSGGGLVQPGGSLRLACVVSGFTVTSNYITWVRQAPGKGLEWVSVIYSHGRAYYSASVNGRFTISRHTSKNTVYLEMNSLRPEDTAVYYCAGGGLVGGYDEYFFDYWGQGTLATVSS
VL: ETVLTQSPGTLSLTPGERATLSCRVGQSVSGSHLAWYQQKPGQAPRLLIYGASSRATGIPDRFGGSVSGTDFTLTISRLEPEDSAVYYCQQYGDSRYTFGQGTKLEIK
B17: TCN-542 (5079_A16) (antibody, V domains shown)
VH: QVQLQESGPGLVKPSQTLSLTCTVSGGSISSGNYYWNWVRQHPGKGLEWIGYIYYRGSTFYNPSLKSRVTISIDTSKNQFSLRLSSVTAADTAVYYCAKDTRSSLDNYQYGMDVWGQGTTVTVSS
VL: QTVVTQEPSLTVSPGGTVTLTCASSTGAVTSSYFPNWFQQKPGQAPRPLIYSTTIRHSWTPARFSGSLLGGKAALTLSGVQPEDEADYYCLLYSGGDPVAFGGGTKLTVL
B18: TCN-541 (5062_M11) (antibody, V domains shown)
VH: QVQLQESGPGLVKPSETLSLTCTVSGGSINSYYWNWIRQPPGKGLEWIGYIYHSGSTNYNPSLKSRVTISVDTSKNQFSLQLSSVTAADTAVYYCARLRTDYGDPDSVYYYGMDVWGQGTTVTVSS
VL: SYELTQPPSVSVSPGQTARITCSGDALPKQNAYWYQQKPGQAPVLLIYKDSERPSGIPERFSGSSSGTTVTLTISGVQAEDEADYYCQSADSSGTSWVFGGGTKLTVL

The binders below were run against recombinant soluble homotrimeric HA, A/common magpie/Hong Kong/5052/07 H5N1 (Influenza A virus A/common magpie/Hong Kong/5052/2007(H5N1)) (assay: microarray, transfection SN IgG, trimeric HA). Conditions: remark: other sources report otherwise.

| Binder | Trimeric HA Binding: RLU |
| --- | --- |
| B1 | 993 RLU |
| B2 | 54900 RLU |
| B3 | 34600 RLU |
| B4 | 33600 RLU |
| B5 | 39200 RLU |

The binders below were run against T1, recombinant soluble homotrimeric HA of A/common magpie/Hong Kong/5052/07 (H5N1) (Influenza A virus A/common magpie/Hong Kong/5052/2007(H5N1)) (assay: trimeric HA microarray, transfection supernatant set 5). Conditions: remark: other sources report otherwise.

| Binder | Trimeric HA Binding: RLU |
| --- | --- |
| B6 | 2070 RLU |
| B7 | 1390 RLU |
| B8 | 1070 RLU |
| B9 | 3140 RLU |
| B10 | 1920 RLU |

These binders were tested against T1, recombinant soluble homotrimeric HA of … (assay: trimeric HA microarray, transfection supernatant set 2). Conditions: remark: other sources report otherwise.

| Binder | Trimeric HA Binding: RLU |
| --- | --- |
| B11 | 45300 RLU |
| B12 | 21400 RLU |
| B13 | 43800 RLU |

The binders below were run against T1, recombinant soluble homotrimeric HA of … (assay: HA microarray, BCC supernatant). Conditions: remark: other sources report otherwise.

| Binder | Trimeric HA Binding: RLU |
| --- | --- |
| B6 | 18700 RLU |
| B14 | 45700 RLU |
| B9 | 18700 RLU |
| B3 | 42200 RLU |
| B15 | 3960 RLU |
| B16 | 13500 RLU |
| B4 | 16100 RLU |
| B5 | 26000 RLU |

What follows are binders tested against recombinant homotrimeric HA A/common magpie/Hong Kong/5052/07 H5N1 (Influenza A virus A/common magpie/Hong Kong/5052/2007(H5N1)) (assay: protein microarray, purified IgG, trimeric HA). Conditions: remark: other sources report otherwise.

| Binder | Trimeric HA Binding: RLU |
| --- | --- |
| B6 | 810 RLU |
| B7 | 804 RLU |
| B14 | 907 RLU |
| B1 | 753 RLU |
| B11 | 25500 RLU |
| B17 | 1540 RLU |
| B8 | 679 RLU |
| B2 | 23700 RLU |
| B9 | 5140 RLU |
| B3 | 19400 RLU |
| B12 | 15100 RLU |
| B13 | 24600 RLU |
| B10 | 810 RLU |
| B18 | 728 RLU |
| B4 | 17000 RLU |
| B5 | 22800 RLU |
